Reference: the supplement of paper PMC11246515
± gives the standard deviation of the averaged measurements.

Experiment: total protein half-life in vivo (active degradation + dilution); higher = more stable protein
[1] = E. coli NCM3722 delta-clpP delta-lon delta-hslV, growth: N-lim chemostat, doubling time 6 h
[2] = E. coli NCM3722 delta-lon, growth: N-lim chemostat, doubling time 6 h
[3] = E. coli NCM3722 delta-smpB, growth: N-lim chemostat, doubling time 6 h
[4] = wild type E. coli NCM3722, growth: C-lim chemostat, doubling time 3 h
[5] = wild type E. coli NCM3722, growth: C-lim chemostat, doubling time 6 h
[6] = wild type E. coli NCM3722, growth: C-lim chemostat, doubling time 12 h
[7] = wild type E. coli NCM3722, growth: N-lim chemostat, doubling time 6 h
[8] = wild type E. coli NCM3722, growth: N-lim chemostat, doubling time 12 h
[9] = wild type E. coli NCM3722, growth: P-lim chemostat, doubling time 6 h
[10] = wild type E. coli NCM3722, growth: P-lim chemostat, doubling time 12 h
[11] = E. coli NCM3722 delta-clpP, growth: N-lim chemostat, doubling time 6 h
[12] = E. coli NCM3722 delta-hslV, growth: N-lim chemostat, doubling time 6 h

## MKKRKTVKKRYVIALVIVIAGLITLWRILNAPVPTYQTLIVRPGDLQQSVLATGKLDALRKVDVGAQVSGQLKTLSVAIGDKVKKDQLLGVIDPEQAENQIKEVEATLMELRAQRQQAEAELKLARVTYSRQQRLAQTKAVSQQDLDTAATEMAVKQAQIGTIDAQIKRNQASLDTAKTNLDYTRIVAPMAGEVTQITTLQGQTVIAAQQAPNILTLADMSAMLVKAQVSEADVIHLKPGQKAWFTVLGDPLTRYEGQIKDVLPTPEKVNDAIFYYARFEVPNPNGLLRLDMTAQVHIQLTDVKNVLTIPLSALGDPVGDNRYKVKLLRNGETREREVTIGARNDTDVEIVKGLEAGDEVVIGEAKPGAAQ
[1]
  total protein half-life in vivo: 6.09 ± 0.067 h
[2]
  total protein half-life in vivo: 6.45 ± 0.1 h
[3]
  total protein half-life in vivo: 6.19 ± 0.26 h
[4]
  total protein half-life in vivo: 3.07 ± 0.068 h
[5]
  total protein half-life in vivo: 6.04 ± 0.16 h
[6]
  total protein half-life in vivo: 12.54 ± 0.11 h
[7]
  total protein half-life in vivo: 6.37 ± 0.067 h
[8]
  total protein half-life in vivo: 13.5 ± 1.4 h
[9]
  total protein half-life in vivo: 5.83 ± 0.37 h
[10]
  total protein half-life in vivo: 12 ± 0.15 h

## MKKRVYLIAAVVSGALAVSGCTTNPYTGEREAGKSAIGAGLGSLVGAGIGALSSSKKDRGKGALIGAAAGAALGGGVGYYMDVQEAKLRDKMRGTGVSVTRSGDNIILNMPNNVTFDSSSATLKPAGANTLTGVAMVLKEYPKTAVNVIGYTDSTGGHDLNMRLSQQRADSVASALITQGVDASRIRTQGLGPANPIASNSTAEGKAQNRRVEITLSPL
[11]
  total protein half-life in vivo: 5.47 h
[12]
  total protein half-life in vivo: 6.78 ± 0.46 h
[2]
  total protein half-life in vivo: 6.16 ± 0.47 h
[3]
  total protein half-life in vivo: 5.3 ± 0.5 h
[4]
  total protein half-life in vivo: 2.78 ± 0.1 h
[5]
  total protein half-life in vivo: 5.45 ± 0.11 h
[7]
  total protein half-life in vivo: 5.81 ± 0.95 h
[8]
  total protein half-life in vivo: 12.6 h
[9]
  total protein half-life in vivo: 5.82 h
[10]
  total protein half-life in vivo: 11.4 ± 0.82 h

## MKKTAIAIAVALAGFATVAQAAPKDNTWYTGAKLGWSQYHDTGFINNNGPTHENQLGAGAFGGYQVNPYVGFEMGYDWLGRMPYKGSVENGAYKAQGVQLTAKLGYPITDDLDIYTRLGGMVWRADTKSNVYGKNHDTGVSPVFAGGVEYAITPEIATRLEYQWTNNIGDAHTIGTRPDNGMLSLGVSYRFGQGEAAPVVAPAPAPAPEVQTKHFTLKSDVLFNFNKATLKPEGQAALDQLYSQLSNLDPKDGSVVVLGYTDRIGSDAYNQGLSERRAQSVVDYLISKGIPADKISARGMGESNPVTGNTCDNVKQRAALIDCLAPDRRVEIEVKGIKDVVTQPQA [P0A910]
[1]
  total protein half-life in vivo: 6.64 ± 0.48 h
[11]
  total protein half-life in vivo: 6.96 ± 0.27 h
[12]
  total protein half-life in vivo: 6.86 ± 0.49 h
[2]
  total protein half-life in vivo: 7.032 ± 0.055 h
[3]
  total protein half-life in vivo: 5.84 ± 0.27 h
[4]
  total protein half-life in vivo: 3.41 ± 0.11 h
[5]
  total protein half-life in vivo: 6.7 ± 0.097 h
[6]
  total protein half-life in vivo: 13 ± 1.5 h
[7]
  total protein half-life in vivo: 6.3 ± 0.41 h
[8]
  total protein half-life in vivo: 13.6 ± 0.81 h
[9]
  total protein half-life in vivo: 6.224 ± 0.024 h
[10]
  total protein half-life in vivo: 15 ± 0.76 h

## MKKTLLAAGAVLALSSSFTVNAAENDKPQYLSDWWHQSVNVVGSYHTRFGPQIRNDTYLEYEAFAKKDWFDFYGYADAPVFFGGNSDAKGIWNHGSPLFMEIEPRFSIDKLTNTDLSFGPFKEWYFANNYIYDMGRNKDGRQSTWYMGLGTDIDTGLPMSLSMNVYAKYQWQNYGAANENEWDGYRFKIKYFVPITDLWGGQLSYIGFTNFDWGSDLGDDSGNAINGIKTRTNNSIASSHILALNYDHWHYSVVARYWHDGGQWNDDAELNFGNGNFNVRSTGWGGYLVVGYNF [P0A927]
[11]
  total protein half-life in vivo: > 8 h
[12]
  total protein half-life in vivo: 6.33 ± 0.09 h
[2]
  total protein half-life in vivo: > 8 h
[6]
  total protein half-life in vivo: 14.1 ± 1 h
[7]
  total protein half-life in vivo: 6.53 ± 0.7 h
[9]
  total protein half-life in vivo: 6.08 ± 0.99 h

## MKKWAVIISAVGLAFAVSGCSSDYVMATKDGRMILTDGKPEIDDDTGLVSYHDQQGNAMQINRDDVSQIIER
[1]
  total protein half-life in vivo: 4.61 ± 0.25 h
[11]
  total protein half-life in vivo: 5.4 h
[12]
  total protein half-life in vivo: 4.24 ± 0.17 h
[2]
  total protein half-life in vivo: 6.65 ± 0.55 h
[3]
  total protein half-life in vivo: 3.25 ± 1.1 h
[4]
  total protein half-life in vivo: 2.24 ± 0.32 h
[5]
  total protein half-life in vivo: 4.63 ± 0.37 h
[6]
  total protein half-life in vivo: 7.88 ± 0.34 h
[7]
  total protein half-life in vivo: 4.76 ± 0.35 h
[8]
  total protein half-life in vivo: 8.92 ± 2.6 h
[9]
  total protein half-life in vivo: 3.68 ± 0.91 h

## MKKWSRHLLAAGALALGMSAAHADDNNTLYFYNWTEYVPPGLLEQFTKETGIKVIYSTYESNETMYAKLKTYKDGAYDLVVPSTYYVDKMRKEGMIQKIDKSKLTNFSNLDPDMLNKPFDPNNDYSIPYIWGATAIGVNGDAVDPKSVTSWADLWKPEYKGSLLLTDDAREVFQMALRKLGYSGNTTDPKEIEAAYNELKKLMPNVAAFNSDNPANPYMEGEVNLGMIWNGSAFVARQAGTPIDVVWPKEGGIFWMDSLAIPANAKNKEGALKLINFLLRPDVAKQVAETIGYPTPNLAARKLLSPEVANDKTLYPDAETIKNGEWQNDVGAASSIYEEYYQKLKAGR [P0AFK9]
[11]
  total protein half-life in vivo: 5.36 ± 0.48 h
[12]
  total protein half-life in vivo: 6.46 ± 0.61 h
[2]
  total protein half-life in vivo: 6.271 ± 0.061 h
[3]
  total protein half-life in vivo: 5.94 ± 0.35 h
[4]
  total protein half-life in vivo: 3.44 ± 0.58 h
[5]
  total protein half-life in vivo: 6.44 ± 0.57 h
[6]
  total protein half-life in vivo: 13.6 ± 0.72 h
[7]
  total protein half-life in vivo: 6.07 ± 0.22 h
[8]
  total protein half-life in vivo: 11.99 ± 0.032 h
[9]
  total protein half-life in vivo: 5.59 ± 0.35 h
[10]
  total protein half-life in vivo: 12.5 ± 0.19 h

## MKKYLALALIAPLLISCSTTKKGDTYNEAWVKDTNGFDILMGQFAHNIENIWGFKEVVIAGPKDYVKYTDQYQTRSHINFDDGTITIETIAGTEPAAHLRRAIIKTLLMGDDPSSVDLYSDVDDITISKEPFLYGQVVDNTGQPIRWEGRASNFADYLLKNRLKSRSNGLRIIYSVTINMVPNHLDKRAHKYLGMVRQASRKYGVDESLILAIMQTESSFNPYAVSRSDALGLMQVVQHTAGKDVFRSQGKSGTPSRSFLFDPASNIDTGTAYLAMLNNVYLGGIDNPTSRRYAVITAYNGGAGSVLRVFSNDKIQAANIINTMTPGDVYQTLTTRHPSAESRRYLYKVNTAQKSYRRR [P0C066]
[1]
  total protein half-life in vivo: 6.29 ± 0.53 h
[12]
  total protein half-life in vivo: 6.24 ± 0.8 h
[3]
  total protein half-life in vivo: 4.92 ± 0.2 h
[4]
  total protein half-life in vivo: 3.27 ± 0.4 h
[5]
  total protein half-life in vivo: 5.3 ± 0.52 h
[6]
  total protein half-life in vivo: 9.66 ± 1.5 h
[7]
  total protein half-life in vivo: 6.34 ± 0.94 h
[8]
  total protein half-life in vivo: 12.6 ± 2.2 h
[9]
  total protein half-life in vivo: 7.12 h
